Test results: publication PMC8450086, “Cooperative DNA binding mediated by KicGAS/ORF52 oligomerization allows inhibition of DNA-induced phase separation and activation of cGAS”

What was measured:
[1] = target: T1, KicGAS (Kaposi sarcoma-associated herpesvirus …, UniProt Q2HR80 1-131); assay: fluorescence polarization; EMSA: 20 mM Tris-HCl pH 7.4, 150 mM NaCl, 10% glycerol, on ice, 20 nM FAM-DNA, gel at 4 C; FP: 400 pg/ul FAM-DNA, buffer and temperature not stated; Hill fits; details: protein: recombinant; tags: Avi-His6-SUMO removed (tag-free); label: 5' FAM sense strand; blunt
T1 sequence: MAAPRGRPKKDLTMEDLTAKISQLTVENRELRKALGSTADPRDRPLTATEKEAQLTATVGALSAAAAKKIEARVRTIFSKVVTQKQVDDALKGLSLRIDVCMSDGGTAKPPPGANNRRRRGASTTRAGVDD

[2] = target: T1, KicGAS; assay: fluorescence polarization; Hill n 2.21; EMSA: 20 mM Tris-HCl pH 7.4, 150 mM NaCl, 10% glycerol, on ice, 20 nM FAM-DNA, gel at 4 C; FP: 400 pg/ul FAM-DNA, buffer and temperature not stated; Hill fits; details: protein: recombinant; tags: Avi-His6-SUMO removed (tag-free); label: 5' FAM
[3] = target: T1, KicGAS; assay: fluorescence polarization; Hill n 2.36; EMSA: 20 mM Tris-HCl pH 7.4, 150 mM NaCl, 10% glycerol, on ice, 20 nM FAM-DNA, gel at 4 C; FP: 400 pg/ul FAM-DNA, buffer and temperature not stated; Hill fits; details: protein: recombinant; tags: Avi-His6-SUMO removed (tag-free); label: 5' FAM sense strand; blunt
[4] = target: T1, KicGAS; assay: fluorescence polarization; Hill n 2.05; EMSA: 20 mM Tris-HCl pH 7.4, 150 mM NaCl, 10% glycerol, on ice, 20 nM FAM-DNA, gel at 4 C; FP: 400 pg/ul FAM-DNA, buffer and temperature not stated; Hill fits; details: protein: recombinant; tags: Avi-His6-SUMO removed (tag-free); label: 5' FAM sense strand; blunt
[5] = target: T1, KicGAS; assay: EMSA; Hill n 2.20; EMSA: 20 mM Tris-HCl pH 7.4, 150 mM NaCl, 10% glycerol, on ice, 20 nM FAM-DNA, gel at 4 C; FP: 400 pg/ul FAM-DNA, buffer and temperature not stated; Hill fits; details: protein: recombinant; tags: Avi-His6-SUMO removed (tag-free); label: 5' FAM sense strand; blunt
[6] = target: T1, KicGAS; assay: fluorescence polarization; Hill n 2.1; EMSA: 20 mM Tris-HCl pH 7.4, 150 mM NaCl, 10% glycerol, on ice, 20 nM FAM-DNA, gel at 4 C; FP: 400 pg/ul FAM-DNA, buffer and temperature not stated; Hill fits; details: protein: recombinant; tags: Avi-His6-SUMO removed (tag-free); label: 5' FAM sense strand; blunt
[7] = target: T1, KicGAS; assay: fluorescence polarization; Hill n 1.85; EMSA: 20 mM Tris-HCl pH 7.4, 150 mM NaCl, 10% glycerol, on ice, 20 nM FAM-DNA, gel at 4 C; FP: 400 pg/ul FAM-DNA, buffer and temperature not stated; Hill fits; details: protein: recombinant, tags: Avi-His6-SUMO removed (tag-free)
[8] = target: T1, KicGAS; assay: fluorescence polarization; Hill n 2.55; EMSA: 20 mM Tris-HCl pH 7.4, 150 mM NaCl, 10% glycerol, on ice, 20 nM FAM-DNA, gel at 4 C; FP: 400 pg/ul FAM-DNA, buffer and temperature not stated; Hill fits; details: protein: recombinant; tags: Avi-His6-SUMO removed (tag-free); label: 5' FAM sense strand; blunt
[9] = target: T1, KicGAS; assay: fluorescence polarization; Hill n 2.24; EMSA: 20 mM Tris-HCl pH 7.4, 150 mM NaCl, 10% glycerol, on ice, 20 nM FAM-DNA, gel at 4 C; FP: 400 pg/ul FAM-DNA, buffer and temperature not stated; Hill fits; details: protein: recombinant, tags: Avi-His6-SUMO removed (tag-free)
[10] = target: T1, KicGAS; assay: fluorescence polarization; Hill n 1.33; EMSA: 20 mM Tris-HCl pH 7.4, 150 mM NaCl, 10% glycerol, on ice, 20 nM FAM-DNA, gel at 4 C; FP: 400 pg/ul FAM-DNA, buffer and temperature not stated; Hill fits; details: protein: recombinant; tags: Avi-His6-SUMO removed (tag-free); label: 5' FAM
[11] = target: T1, KicGAS; assay: fluorescence polarization; Hill n 1.84; EMSA: 20 mM Tris-HCl pH 7.4, 150 mM NaCl, 10% glycerol, on ice, 20 nM FAM-DNA, gel at 4 C; FP: 400 pg/ul FAM-DNA, buffer and temperature not stated; Hill fits; details: protein: recombinant; tags: Avi-His6-SUMO removed (tag-free); label: 5' FAM sense strand; blunt
[12] = target: T1, KicGAS; assay: EMSA; Hill n 1.95; EMSA: 20 mM Tris-HCl pH 7.4, 150 mM NaCl, 10% glycerol, on ice, 20 nM FAM-DNA, gel at 4 C; FP: 400 pg/ul FAM-DNA, buffer and temperature not stated; Hill fits; details: protein: recombinant; tags: Avi-His6-SUMO removed (tag-free); label: 5' FAM sense strand; blunt
[13] = target: T1, KicGAS; assay: fluorescence polarization; Hill n 1.70; EMSA: 20 mM Tris-HCl pH 7.4, 150 mM NaCl, 10% glycerol, on ice, 20 nM FAM-DNA, gel at 4 C; FP: 400 pg/ul FAM-DNA, buffer and temperature not stated; Hill fits; details: protein: recombinant; tags: Avi-His6-SUMO removed (tag-free); label: 5' FAM sense strand; blunt
[14] = target: T1, KicGAS; assay: fluorescence polarization; Hill n 1.50; EMSA: 20 mM Tris-HCl pH 7.4, 150 mM NaCl, 10% glycerol, on ice, 20 nM FAM-DNA, gel at 4 C; FP: 400 pg/ul FAM-DNA, buffer and temperature not stated; Hill fits; details: protein: recombinant; tags: Avi-His6-SUMO removed (tag-free); label: 5' FAM
[15] = target: T1, KicGAS; assay: fluorescence polarization; Hill n 1.88; EMSA: 20 mM Tris-HCl pH 7.4, 150 mM NaCl, 10% glycerol, on ice, 20 nM FAM-DNA, gel at 4 C; FP: 400 pg/ul FAM-DNA, buffer and temperature not stated; Hill fits; details: protein: recombinant; tags: Avi-His6-SUMO removed (tag-free); label: 5' FAM sense strand; blunt
[16] = target: T1, KicGAS; assay: fluorescence polarization; Hill n 2.15; EMSA: 20 mM Tris-HCl pH 7.4, 150 mM NaCl, 10% glycerol, on ice, 20 nM FAM-DNA, gel at 4 C; FP: 400 pg/ul FAM-DNA, buffer and temperature not stated; Hill fits; details: protein: recombinant; tags: Avi-His6-SUMO removed (tag-free); label: 5' FAM
[17] = target: T1, KicGAS; assay: fluorescence polarization; Hill n 2.33; EMSA: 20 mM Tris-HCl pH 7.4, 150 mM NaCl, 10% glycerol, on ice, 20 nM FAM-DNA, gel at 4 C; FP: 400 pg/ul FAM-DNA, buffer and temperature not stated; Hill fits; details: protein: recombinant; tags: Avi-His6-SUMO removed (tag-free); label: 5' FAM sense strand; blunt
[18] = target: T1, KicGAS; assay: fluorescence polarization; Hill n 0.90; EMSA: 20 mM Tris-HCl pH 7.4, 150 mM NaCl, 10% glycerol, on ice, 20 nM FAM-DNA, gel at 4 C; FP: 400 pg/ul FAM-DNA, buffer and temperature not stated; Hill fits; details: protein: recombinant; tags: Avi-His6-SUMO removed (tag-free); label: 5' FAM
[19] = target: T1, KicGAS; assay: fluorescence polarization; Hill n 1.69; EMSA: 20 mM Tris-HCl pH 7.4, 150 mM NaCl, 10% glycerol, on ice, 20 nM FAM-DNA, gel at 4 C; FP: 400 pg/ul FAM-DNA, buffer and temperature not stated; Hill fits; details: protein: recombinant; tags: Avi-His6-SUMO removed (tag-free); label: 5' FAM sense strand; blunt
[20] = target: T1, KicGAS; assay: fluorescence polarization; Hill n 2.31; EMSA: 20 mM Tris-HCl pH 7.4, 150 mM NaCl, 10% glycerol, on ice, 20 nM FAM-DNA, gel at 4 C; FP: 400 pg/ul FAM-DNA, buffer and temperature not stated; Hill fits; details: protein: recombinant; tags: Avi-His6-SUMO removed (tag-free); label: 5' FAM sense strand; blunt

B1: ISD12 (dsDNA)
DNA 1: ACTGATCTGTAC
DNA 2: GTACAGATCAGT
- binding result [1]: no binding

B2: ssVACV72 (ssDNA)
DNA: ATCCATCAGAAAGAGGTTTAATATTTTTGTGAGACCATCGAAGAGAGAAAGAGATAAAACTTTTTTACGACT
- Kd [2]: 130 ± 10 nM

B3: VACV72 (dsDNA)
DNA 1: ATCCATCAGAAAGAGGTTTAATATTTTTGTGAGACCATCGAAGAGAGAAAGAGATAAAACTTTTTTACGACT
DNA 2: AGTCGTAAAAAAGTTTTATCTCTTTCTCTCTTCGATGGTCTCACAAAAATATTAAACCTCTTTCTGATGGAT
- Kd [3]: 130 ± 10 nM

B4: 90% GC (dsDNA)
DNA 1: CCGCCAGCCCGCGGGCTGGC
DNA 2: GCCAGCCCGCGGGCTGGCGG
- Kd [4]: 1160 ± 80 nM

B5: ISD45 (dsDNA)
DNA 1: TACAGATCTACTAGTGATCTATGACTGATCTGTACATGATCTACA
DNA 2: TGTAGATCATGTACAGATCAGTCATAGATCACTAGTAGATCTGTA
- Kd [5]: 120 ± 10 nM
- Kd [6]: 150 ± 20 nM

B6: DNA-RNA hybrid 45 (DNA:RNA)
RNA: UACAGAUCUACUAGUGAUCUAUGACUGAUCUGUACAUGAUCUACA
DNA: TGTAGATCATGTACAGATCAGTCATAGATCACTAGTAGATCTGTA
- Kd ([7]; label: 5' FAM sense strand (RNA), blunt): 300 ± 20 nM

Binder: TACAGATCTACTAGTGATCTATGACTGATCTGTACATGATCTACA (ssDNA) [ssISD45]
- Kd ([7]; label: 5' FAM): 260 ± 10 nM

B7: KS90 (dsDNA)
DNA 1: TCGTCTCGCCTGTCAAATCGTCTATGTTTTTCGGCGCGTTGTGCCAATATAACTCTAGAAACTAATACTGTATCTGTCAGCAGTACTACA
DNA 2: TGTAGTACTGCTGACAGATACAGTATTAGTTTCTAGAGTTATATTGGCACAACGCGCCGAAAAACATAGACGATTTGACAGGCGAGACGA
- Kd [8]: 100 ± 10 nM

B8: ssKS90 (ssDNA)
DNA: TCGTCTCGCCTGTCAAATCGTCTATGTTTTTCGGCGCGTTGTGCCAATATAACTCTAGAAACTAATACTGTATCTGTCAGCAGTACTACA
- Kd ([9]; label: 5' FAM): 100 ± 10 nM

Binder: CTAGTGATCTATGACTGATCTGTAC (ssDNA) [ssISD25]
- Kd [10]: 1580 ± 220 nM

B9: ISD25 (dsDNA)
DNA 1: CTAGTGATCTATGACTGATCTGTAC
DNA 2: GTACAGATCAGTCATAGATCACTAG
- Kd [11]: 440 ± 30 nM
- Kd [12]: 380 ± 30 nM

B10: ISD20 (dsDNA)
DNA 1: ATCTATGACTGATCTGTACA
DNA 2: TGTACAGATCAGTCATAGAT
- Kd [13]: 820 ± 80 nM

Binder: ATCTACTAGTGATCTATGACTGATCTGTAC (ssDNA) [ssISD30]
- Kd [14]: 720 ± 50 nM

B11: ISD30 (dsDNA)
DNA 1: ATCTACTAGTGATCTATGACTGATCTGTAC
DNA 2: GTACAGATCAGTCATAGATCACTAGTAGAT
- Kd [15]: 290 ± 20 nM

B12: ssHSV60 (ssDNA)
DNA: TAAGACACGATGCGATAAAATCTGTTTGTAAAATTTATTAAGGGTACAAATT
- Kd [16]: 170 ± 10 nM

B13: HSV60 (dsDNA)
DNA 1: TAAGACACGATGCGATAAAATCTGTTTGTAAAATTTATTAAGGGTACAAATT
DNA 2: AATTTGTACCCTTAATAAATTTTACAAACAGATTTTATCGCATCGTGTCTTA
- Kd ([9]; label: 5' FAM sense strand, blunt): 160 ± 10 nM

B14: 0% GC (dsDNA)
DNA 1: ATTTAATAATAATTTATTAT
DNA 2: ATAATAAATTATTATTAAAT
- Kd [17]: 800 ± 50 nM

Binder: ATCTATGACTGATCTGTACA (ssDNA) [ssISD20]
- Kd [18]: 5080 ± 400 nM

B15: dsRNA45 (dsRNA)
RNA 1: UACAGAUCUACUAGUGAUCUAUGACUGAUCUGUACAUGAUCUACA
RNA 2: UGUAGAUCAUGUACAGAUCAGUCAUAGAUCACUAGUAGAUCUGUA
- Kd [19]: 560 ± 50 nM

B16: 30% GC (dsDNA)
DNA 1: ATATCGCTATAGATATCATC
DNA 2: GATGATATCTATAGCGATAT
- Kd [20]: 1070 ± 60 nM
